One experiment has as its target T1, CD73-ND-L133A (human, UniProt P21589 27-317).
T1 construct: Alanine mutant of CD73-ND
T1 sequence: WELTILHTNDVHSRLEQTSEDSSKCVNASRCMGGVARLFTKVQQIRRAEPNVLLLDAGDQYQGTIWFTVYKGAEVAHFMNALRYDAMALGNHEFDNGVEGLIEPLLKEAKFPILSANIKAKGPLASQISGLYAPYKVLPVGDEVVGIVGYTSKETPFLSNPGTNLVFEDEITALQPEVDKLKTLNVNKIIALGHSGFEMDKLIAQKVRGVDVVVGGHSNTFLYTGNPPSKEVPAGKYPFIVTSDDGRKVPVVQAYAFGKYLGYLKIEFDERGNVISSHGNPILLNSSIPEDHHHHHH
Nature of the experiment: ELISA, high plateau value (OD 450 nm). The method, then: (§1) The ELISA plates were coated with SA protein diluted to 1.5 μg/mL in coating buffer (50 mM carbonate coating buffer, pH 9.6) and incubated overnight at 4° C. The supernatant was discarded, and the plates were washed three times with PBST. Then, 5% skimmed milk powder prepared with PBS was added for blocking and the plates were incubated for 2 h at 37° C. After washing the plates once with PBST, CD73-biotin protein (prepared by biotinylating CD73-His protein according to the EZ-Link NHS-Biotin Reagent instructions) was diluted to 0.5 μg/mL and added at 100 μL/well for incubation at room temperature for 1 h. The plates were washed three times with PBST, and the prepared murine-derived monoclonal antibodies against human CD73 were serially diluted with 1% BSA buffer prepared with PBST and added to the ELISA plates at 100 μl/well. The plates were incubated at 37° C. for 1 h. After washing the plates three times with PBST, HRP-labeled goat anti-mouse IgG secondary antibody was added and the plates were incubated for 30 min at 37° C. After washing the plates three times with PBST, the residual droplets were patted dry on absorbent paper as much as possible. Then, 100 μl of TMB color developing solution was added to each well, and the plates were incubated in the dark at room temperature for 5 min for color development. Subsequently, 50 μl of 2M H₂SO₄ stop solution was added to each well to terminate the substrate reaction. The OD values were read at 450 nm using a multimode microplate reader to analyze the binding ability of the tested antibodies to the target antigen human CD73-His.
(§2) Referring to the experimental method in Example 3, the affinity of 48A11-HuV33 for various mutant proteins of CD73-ND was determined. The SA protein was diluted to 1 μg/mL for coating the ELISA plates, and the biotinylated CD73 protein (CD73-biotin) was used at a concentration of 0.1 μg/mL.
For orientation: An ELISA detects its analyte on a solid surface through an enzyme-linked reagent.

A further experiment has as its target T2, CD73-ND-his (human, UniProt P21589 27-317).
T2 construct: Biotinylated and captured on streptavidin in the ELISA
T2 sequence: T1 sequence with A133L
Nature of the experiment: ELISA, high plateau value (OD 450 nm). The method, then: as §1, §2

The target of a further experiment is T3, CD73-ND-V144A (human, UniProt P21589 27-317).
T3 construct: Alanine mutant of CD73-ND
T3 sequence: T1 sequence with A133L, V144A
Nature of the experiment: ELISA; decline multiple of Top against CD73-ND. The method, then:
as §1, §2

For the next experiment, the target named is T4, CD73-ND-L181A (human, UniProt P21589 27-317).
T4 construct: Alanine mutant of CD73-ND
T4 sequence: T1 sequence with A133L, L181A
Nature of the experiment: ELISA; decline multiple of Top against CD73-ND. The method, then: as §1, §2

In the next experiment the target is T5, CD73-ND-K180A (human, UniProt P21589 27-317).
T5 construct: Alanine mutant of CD73-ND
T5 sequence: T1 sequence with A133L, K180A
Nature of the experiment: ELISA; decline multiple of Top against CD73-ND. The method, then: as §1, §2

The target in the next experiment is T6, CD73-ND-T183A (human, UniProt P21589 27-317).
T6 construct: Alanine mutant of CD73-ND
T6 sequence: T1 sequence with A133L, T183A
Put plainly: ELISA; decline multiple of Top against CD73-ND. The method, then: as §1, §2

Residue numbers refer to the chain shown, from its start.

B1: 48A11-HuV33 (antibody, human IgG4, V domains shown)
VH: QVQLVQSGAEVKKPGASVKVSCKASGYTFTSYWMHWVRQAPGQGLEWIGEINPSIGRTNYNEKFKSRVTLTRDTSTSTAYMELSSLRSEDTAVYYCARRVYGTMDYWGQGTLVTVSS
VL: DIQMTQSPSSLSASVGDRVTITCKASQDINSYLSWFQQKPGKSPKLLIYRANIWVDGVPSRFSGSGSGQDYTFTISSLQPEDIATYYCLQYDELYTFGQGTKVEIK
notes: Humanized
As for B1, the figures for the Top in the experiment with CD73-ND-L133A and in the experiment with CD73-ND-his were 0.922 and 2.08, respectively. Further, the “Ratio(Top)” value with CD73-ND-V144A stood at 1.2 fold; in the experiment with CD73-ND-L181A it was 1.9 fold; with CD73-ND-K180A it was 1.1 fold; in the experiment with CD73-ND-T183A it was 1 fold.

Values taken from patent US20250066499A1 (SUNSHINE GUOJIAN PHARMACEUTICAL SHANGHAI, published 2025).
